In data set [1] the target is Cxcr7b (zebrafish CXCR7 ortholog) (zebrafish). Nature of the data set: cell-based or functional assay.
In data set [2] the target is Cxcr7a (zebrafish CXCR7 ortholog) (zebrafish). Nature of the data set: cell-based or functional assay.
For another data set, the target named is T1, human CXCR4 (Homo sapiens, UniProt P61073).
T1 construct: Kate2 (TagRFP2, RFP variant); host or cells: Flp-In T-REx 293 (HEK 293), tetracycline-inducible, cell line number 4
Briefly: human Sdf1-signaling sensor in Flp-In T-REx 293 cell line (CXCR4-Kate2 internalization). The format is cell-based. To be noted: Flp-In T-REx 293 cells, tetracycline-induced sensor, within 40 minutes, not in vehicle treated controls. The text has this:
In order to test whether the human version of the Sdf1-signaling sensor responds to human SDF1 in a similar fashion to that of the fish version of the Sdf1-signaling sensor, the present inventors generated a Flp-In™ T-REx™ 293 cell line that expresses human CXCR4 fused to the RFP variant Kate2 followed by an IRES and a membrane-tethered GFP from a tetracycline-inducible promoter. Because the flippin technology allows one to generate a single copy transgene in a specific genomic location of HEK 293 cells, expression levels from the human Sdf1-signaling sensor are fairly uniform (FIGS. S4A and C).
Human CXCR4-Kate2-IRES-GFP-CaaX was inserted into the FRT sites in the genome of the Flp-In™ T-REx™ cell line using hygromycin selection (Invitrogen). Five different cell lines were established and cell line number 4 was used to characterize the activity of recombinant human SDF1 on the human Sdf1-signaling sensor. Expression of the human Sdf1-signaling sensor was induced using tetracycline and cells were imaged 24 hours after induction of expression using a Leica SP5 II confocal microscope.

For the next data set, the target named is Cxcr4b. The note with it: value used for graph of free Cxcr4b versus free Sdf1, FIG. S3B; read-out: dissociation constant; cited from earlier work.
The test system of another data set is sdf1a. Nature of the data set: linearity of the Sdf1-signaling sensor, sdf1a morpholino injection. To be noted: increasing amounts of morpholino injected, embryos imaged at 36 hpf, FIG. 3C. The format is in vivo, zebrafish. The text has this: Using ImageJ (NIH), a mask was applied to the GFP channel with a threshold to selectively mark the cell membranes of the cells that comprise the primordium. All values in the GFP and Kate2 channels outside of the mask were discarded and the photon counts from the Kate2 channel were divided by the photon counts from the GFP channel for each voxel to yield a Z-stack in which each value-containing voxel represents the ratio of Kate2 fluorescence to GFP fluorescence on the cell membrane. A custom ImageJ (NIH) macro language script was written in order to automate this analysis. The data was then averaged across the dorsal-ventral axis and placed in 1-micron bins in order to yield 100 data points for still images or 80 data points for time-lapse images that correspond to the first 100 μm or the first 80 μm, respectively, from the front tip of the primordium. […]
Tg(cxcr4b:cxcr4b-kate2-IRES-memGFP) embryos were injected alternately with 0, 0.5, 1.0 and 1.5 nl of 0.025 mM or 0.1 mM sdf1a morpholino solution (Doitsidou et al., 2002). […] Image collection and gradient quantification were performed as described above. The shift of the Sdf1-signaling gradient was determined by fitting the average ratios to a second order polynomial using the least squares regression in ImageJ (NIH) and extracting the y-intercept. […]

Data set [3] concerns the target Cxcr4b-Kate2 fusion protein (zebrafish Sdf1-signaling sensor) (zebrafish). Nature of the data set: cell-based or functional assay.

Some results are limits rather than exact numbers.

T1 sequence (P61073 whole entry): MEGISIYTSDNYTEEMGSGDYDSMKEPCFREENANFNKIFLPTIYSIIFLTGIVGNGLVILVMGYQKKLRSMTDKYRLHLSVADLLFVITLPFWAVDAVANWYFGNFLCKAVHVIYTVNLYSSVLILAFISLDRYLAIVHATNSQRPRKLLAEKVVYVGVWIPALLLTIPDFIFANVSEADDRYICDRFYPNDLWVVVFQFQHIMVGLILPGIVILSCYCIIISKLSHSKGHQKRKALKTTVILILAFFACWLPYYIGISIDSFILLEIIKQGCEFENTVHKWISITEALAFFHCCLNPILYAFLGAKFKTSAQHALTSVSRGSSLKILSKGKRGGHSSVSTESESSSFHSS

As to “Sdf1a-GFP (Sdf1a fused to green fluorescent protein) (ligand)”, in data set [1], the fraction of total Sdf1a-GFP sequestered in the rear of the primordium worked out at 1% and the reduction of Sdf1a-GFP protein levels on the stripe outside the primordium upon Cxcr7b over-expression came to 29%. For the same substance, the fraction of total Sdf1a-GFP sequestered in the rear of the primordium in data set [2] came out at 1%.
With “recombinant human SDF1: recombinant human chemokine SDF1, ligand of CXCR4”, the “internalization of CXCR4-Kate2 / activation of the human Sdf1-signaling sensor” value in the data set with human CXCR4 was “induces internalization of CXCR4-Kate2”; in the data set with human CXCR4 (listed as Recombinant human SDF1), “activates the human version of the Sdf1-signaling sensor”.
Take “Sdf1: chemokine Sdf1, free ligand binding reversibly to Cxcr4b”: the Kd on Cxcr4b is 4 nM.
For “sdf1a morpholino: translation-blocking morpholino against sdf1a, SEQ ID NO: 69 (Doitsidou et al., 2002) (ATCACTTTGAGATCCATGTTTGCA; all phosphorodiamidate morpholino (PMO))”, the “shift of FmemRed/FmemGreen ratios across the primordium” value in the data set with sdf1a is “progressively shifts the FmemRed/FmemGreen ratios across the primordium to higher values”.
On to “Sdf1a protein (zebrafish chemokine Sdf1a) (ligand)”, for which, in data set [1], the reduction in the local concentration of signaling competent Sdf1a in the rear of the primordium worked out at 86% and the reduction in the steepness of the Sdf1-signaling gradient across the primordium in the absence of cxcr7b activity was found to be 40%. In data set [2], this substance came in with a reduction in the local concentration of signaling competent Sdf1a in the rear of the primordium of 86% and a reduction in the steepness of the Sdf1-signaling gradient across the primordium in the absence of cxcr7a activity of 31%. Moreover, in data set [3], the average FmemRed/FmemGreen ratio of the Sdf1-signaling sensor in the absence of Sdf1a protein was determined as 2.6; the average FmemRed/FmemGreen ratio of the Sdf1-signaling sensor upon global Sdf1a over-expression is 0.2; the mean FmemRed/FmemGreen at the leading edge of wild-type primordia, 36 hpf was less than 0.6; the mean FmemRed/FmemGreen in the rear of wild-type primordia, 36 hpf came to 2.3.

Source of the values: patent US20150065376A1, “EXPRESSION CONSTRUCTS ENCODING G PROTEIN COUPLED RECEPTORS AND METHODS OF USE THEREOF” (priority 2013, published 2015).
